Results published in article PMC3969726.
Blank lines part the entries; values can stand above or below the substance they belong to.

Experiments:
[1] = molecular target: Bfr ArdA (ArdA protein from Bacteroides fragilis NCTC 9343, Orf BF1222) (Bacteroides fragilis NCTC 9343); test: SEC; Biosep-SEC-S3000 column; 20 mM Tris-HCl, 20 mM MES, 200 mM NaCl, 10 mM MgCl2, 0.1 mM EDTA, 7 mM 2-mercaptoethanol, pH 6.5; 25 °C; apparent molecular mass against injected monomer concentration, fitted to a monomer-dimer equilibrium; apparent constants; dimer to monomers
[2] = molecular target: Ocr (Escherichia phage T7) (UniProt P03775); settings: cited from earlier work
[3] = molecular target: Mu50 ArdA (ArdA protein from Staphylococcus aureus Mu50, Orf SAV0405) (Staphylococcus aureus Mu50); test: SEC; Biosep-SEC-S3000 column; 20 mM Tris-HCl, 20 mM MES, 200 mM NaCl, 10 mM MgCl2, 0.1 mM EDTA, 7 mM 2-mercaptoethanol, pH 6.5; 25 °C; apparent molecular mass against injected monomer concentration, fitted to a monomer-dimer equilibrium; apparent constants; dimer to monomers
[4] = molecular target: Orf18 ArdA protein expressed by the conjugative transposon Tn916 (conjugative transposon Tn916); test: as above

Kd [1]: 0.36 µM
Substance: Bfr ArdA (ArdA protein from Bacteroides fragilis NCTC 9343, Orf BF1222) (natural protein)

Substance: EcoKI MTase (from UniProt P08957)
Kd [2]: 50 pM

Kd [3]: 3.18 µM
Substance: Mu50 ArdA (ArdA protein from Staphylococcus aureus Mu50, Orf SAV0405) (natural protein)

Substance: Orf18 ArdA protein expressed by the conjugative transposon Tn916 (natural protein)
Kd [4]: 2.2 µM
